In article PMC9482650, “Quantitative fragmentomics allow affinity mapping of interactomes” (Nature Communications, 2022):

How the values were obtained:
Assay in all cases: holdup assay
Set-up in all cases: key: below the threshold = too weak to quantify, mostly under pKd 3.1 to 4
[1] = target: T1, DLG3_1, Q92796
T1 sequence (Q92796 125-227, limits assumed, looked up): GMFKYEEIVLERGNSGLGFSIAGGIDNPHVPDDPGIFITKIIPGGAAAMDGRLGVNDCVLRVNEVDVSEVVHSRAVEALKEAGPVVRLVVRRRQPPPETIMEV

[2] = target: T2, DLG3_2, Q92796
T2 sequence (Q92796 221-321, limits assumed, looked up): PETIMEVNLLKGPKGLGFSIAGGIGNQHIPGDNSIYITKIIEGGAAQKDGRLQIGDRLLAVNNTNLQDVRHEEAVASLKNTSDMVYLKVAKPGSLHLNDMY

[3] = target: DLG4_1, P78352
[4] = target: FRMPD2_2, Q68DX3
[5] = target: FRMPD2_3, Q68DX3
[6] = target: T3, GRIP1_2, Q9Y3R0
T3 sequence (Q9Y3R0 145-248, limits assumed, looked up): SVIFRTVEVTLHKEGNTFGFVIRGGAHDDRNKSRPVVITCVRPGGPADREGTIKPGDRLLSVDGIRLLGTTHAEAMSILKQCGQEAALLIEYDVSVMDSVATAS

[7] = target: T4, GRIP1_7, Q9Y3R0
T4 sequence (Q9Y3R0 999-1096, limits assumed, looked up): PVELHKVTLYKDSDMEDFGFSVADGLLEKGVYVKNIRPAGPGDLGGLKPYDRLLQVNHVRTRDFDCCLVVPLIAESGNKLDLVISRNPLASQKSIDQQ

[8] = target: Inadl_4, Q8NI35
[9] = target: Inadl_5, Q8NI35
[10] = target: T5, LIN7A, O14910
T5 sequence (O14910 103-200, limits assumed, looked up): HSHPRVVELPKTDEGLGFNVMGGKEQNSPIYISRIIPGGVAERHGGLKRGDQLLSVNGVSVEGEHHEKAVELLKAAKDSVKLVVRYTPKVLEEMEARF

[11] = target: LNX1_3, Q8TBB1
[12] = target: T6, LRRC7, Q96NW7
T6 sequence (Q96NW7 1440-1537, limits assumed, looked up): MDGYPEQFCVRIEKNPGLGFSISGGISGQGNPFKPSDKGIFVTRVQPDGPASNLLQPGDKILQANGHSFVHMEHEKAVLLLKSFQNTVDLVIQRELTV

[13] = target: MAGI1_1, Q96QZ7
[14] = target: MAGI1_2, Q96QZ7
[15] = target: MAGI2_4, Q86UL8
[16] = target: MAGI2_6, Q86UL8
[17] = target: MAGI3_2, Q5TCQ9
[18] = target: MAST1, Q9Y2H9
[19] = target: T7, MPDZ_10, O75970
T7 sequence (O75970 1624-1722, limits assumed, looked up): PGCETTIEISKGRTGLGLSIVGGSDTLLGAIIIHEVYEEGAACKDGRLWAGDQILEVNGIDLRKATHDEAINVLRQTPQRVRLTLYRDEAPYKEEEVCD

[20] = target: T8, MPP2, Q14168
T8 sequence (Q14168 180-250, limits assumed, looked up): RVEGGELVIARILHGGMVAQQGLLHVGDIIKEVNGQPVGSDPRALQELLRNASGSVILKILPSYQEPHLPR

[21] = target: NHERF4_4, Q86UT5
[22] = target: PDLIM1, O00151
[23] = target: T9, RADIL, Q96JH8
T9 sequence (Q96JH8 971-1071, limits assumed, looked up): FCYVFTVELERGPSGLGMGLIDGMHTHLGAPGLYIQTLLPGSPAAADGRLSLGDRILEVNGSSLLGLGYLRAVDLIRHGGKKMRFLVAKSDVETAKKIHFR

[24] = target: SCRIB_3, Q14160
[25] = target: T10, SIPA1L2, Q9P2F8
T10 sequence (Q9P2F8 945-1036, limits assumed, looked up): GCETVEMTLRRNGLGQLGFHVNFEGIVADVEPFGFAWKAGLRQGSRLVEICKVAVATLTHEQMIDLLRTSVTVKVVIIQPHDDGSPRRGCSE

[26] = target: TJP1_2, Q07157
[27] = target: TJP2_1, Q9UDY2
[28] = plain residues with an end cap or a label only (N-terminal biotin on a linker: ttds)
[29] = plain residues with an end cap or a label only (N-terminal biotin on a linker: ado-ado)
[30] = plain residues with an end cap or a label only (N-terminal biotin on a linker: ahx)

Sequence of Inadl_4, Q8NI35 (Q8NI35 547-651): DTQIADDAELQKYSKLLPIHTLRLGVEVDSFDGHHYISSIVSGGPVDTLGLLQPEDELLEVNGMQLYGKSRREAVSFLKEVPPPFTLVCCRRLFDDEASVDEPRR
Sequence of NHERF4_4, Q86UT5 (Q86UT5 464-550): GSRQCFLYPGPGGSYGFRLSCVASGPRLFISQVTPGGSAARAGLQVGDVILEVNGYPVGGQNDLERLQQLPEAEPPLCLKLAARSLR
Sequence of DLG4_1, P78352 (P78352 62-152): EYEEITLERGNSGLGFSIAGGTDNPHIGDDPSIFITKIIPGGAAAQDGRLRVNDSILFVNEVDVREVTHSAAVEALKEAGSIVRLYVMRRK
Sequence of MAST1, Q9Y2H9 (Q9Y2H9 962-1065): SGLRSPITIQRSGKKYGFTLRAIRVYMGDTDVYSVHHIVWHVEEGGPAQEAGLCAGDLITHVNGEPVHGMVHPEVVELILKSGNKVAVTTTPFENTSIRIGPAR
Sequence of FRMPD2_2, Q68DX3 (Q68DX3 944-1038): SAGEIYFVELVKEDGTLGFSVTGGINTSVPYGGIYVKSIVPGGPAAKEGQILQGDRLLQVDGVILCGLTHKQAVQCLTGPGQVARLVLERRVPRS
Sequence of MAGI3_2, Q5TCQ9 (Q5TCQ9 398-503): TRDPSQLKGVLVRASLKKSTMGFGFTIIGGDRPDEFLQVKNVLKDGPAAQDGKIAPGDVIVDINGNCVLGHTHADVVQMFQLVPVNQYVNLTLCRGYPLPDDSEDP
Sequence of LNX1_3, Q8TBB1 (Q8TBB1 500-596): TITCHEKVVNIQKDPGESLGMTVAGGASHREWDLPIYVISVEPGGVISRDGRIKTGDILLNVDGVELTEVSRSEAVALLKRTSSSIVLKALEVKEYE
Sequence of PDLIM1, O00151 (O00151 1-87): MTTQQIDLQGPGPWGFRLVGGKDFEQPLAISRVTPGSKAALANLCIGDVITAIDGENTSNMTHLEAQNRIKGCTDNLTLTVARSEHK
Sequence of TJP1_2, Q07157 (Q07157 181-274): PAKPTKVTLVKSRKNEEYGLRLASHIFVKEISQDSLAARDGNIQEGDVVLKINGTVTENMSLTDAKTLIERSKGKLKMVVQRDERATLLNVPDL
Sequence of TJP2_1, Q9UDY2 (Q9UDY2 24-128): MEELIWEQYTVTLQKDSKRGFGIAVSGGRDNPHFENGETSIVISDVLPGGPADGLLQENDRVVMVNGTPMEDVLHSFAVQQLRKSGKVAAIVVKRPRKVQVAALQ
Sequence of Inadl_5, Q8NI35 (Q8NI35 673-780): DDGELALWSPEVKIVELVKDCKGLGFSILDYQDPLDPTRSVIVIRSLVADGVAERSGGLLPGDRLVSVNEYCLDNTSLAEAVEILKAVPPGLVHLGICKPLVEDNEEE
Sequence of MAGI1_1, Q96QZ7 (Q96QZ7 1-106): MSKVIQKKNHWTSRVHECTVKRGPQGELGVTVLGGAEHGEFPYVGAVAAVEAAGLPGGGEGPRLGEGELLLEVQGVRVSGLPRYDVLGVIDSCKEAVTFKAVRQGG
Sequence of FRMPD2_3, Q68DX3 (Q68DX3 1073-1166): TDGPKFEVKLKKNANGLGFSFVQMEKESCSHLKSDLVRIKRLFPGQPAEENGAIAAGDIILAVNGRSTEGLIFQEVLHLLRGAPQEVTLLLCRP
Sequence of SCRIB_3, Q14160 (Q14160 999-1103): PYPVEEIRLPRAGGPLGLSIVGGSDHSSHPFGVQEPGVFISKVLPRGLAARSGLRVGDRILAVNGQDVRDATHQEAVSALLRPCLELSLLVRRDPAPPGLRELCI
Sequence of MAGI1_2, Q96QZ7 (Q96QZ7 456-580): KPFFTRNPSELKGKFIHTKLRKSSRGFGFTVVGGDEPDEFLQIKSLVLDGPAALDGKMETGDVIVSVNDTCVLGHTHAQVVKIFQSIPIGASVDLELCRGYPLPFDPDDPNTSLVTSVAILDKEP
Sequence of MAGI2_4, Q86UL8 (Q86UL8 772-865): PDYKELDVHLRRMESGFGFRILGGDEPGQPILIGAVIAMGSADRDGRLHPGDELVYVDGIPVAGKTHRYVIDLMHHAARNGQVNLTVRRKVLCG
Sequence of MAGI2_6, Q86UL8 (Q86UL8 1141-1229): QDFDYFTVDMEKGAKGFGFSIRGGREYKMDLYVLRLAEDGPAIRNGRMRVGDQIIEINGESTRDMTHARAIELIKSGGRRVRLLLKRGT

SGGKRKETLV [NET1, Q7Z628]
pKd [1, 28]: 4.61 | pKd [2, 28]: 5.43 | pKd [3, 28]: 5.21 | pKd [4, 28]: 3.67 | pKd [5, 28]: below the threshold | pKd [6, 28]: below the threshold | pKd [7, 28]: below the threshold | pKd [8, 28]: below the threshold | pKd [9, 28]: 3.78 | pKd [10, 28]: below the threshold | pKd [11, 28]: below the threshold | pKd [12, 28]: below the threshold | pKd [13, 28]: below the threshold | pKd [14, 28]: 5.72 | pKd [15, 28]: 4.75 | pKd [16, 28]: 3.54 | pKd [17, 28]: 5.92 | pKd [18, 28]: 4.33 | pKd [19, 28]: below the threshold | pKd [20, 28]: below the threshold | pKd [21, 28]: below the threshold | pKd [22, 28]: below the threshold | pKd [23, 28]: 3.82 | pKd [24, 28]: 4.31 | pKd [25, 28]: below the threshold | pKd [26, 28]: below the threshold | pKd [27, 28]: 3.8

ELKAEDEVQI [DCHS2, Q6V1P9]
pKd [1, 29]: below the threshold | pKd [2, 29]: 3.59 | pKd [3, 29]: below the threshold | pKd [4, 29]: below the threshold | pKd [5, 29]: below the threshold | pKd [6, 29]: below the threshold | pKd [7, 29]: below the threshold | pKd [8, 29]: below the threshold | pKd [9, 29]: below the threshold | pKd [10, 29]: below the threshold | pKd [11, 29]: below the threshold | pKd [12, 29]: below the threshold | pKd [13, 29]: below the threshold | pKd [14, 29]: below the threshold | pKd [15, 29]: below the threshold | pKd [16, 29]: below the threshold | pKd [17, 29]: below the threshold | pKd [18, 29]: below the threshold | pKd [19, 29]: below the threshold | pKd [20, 29]: below the threshold | pKd [21, 29]: below the threshold | pKd [22, 29]: below the threshold | pKd [23, 29]: below the threshold | pKd [24, 29]: below the threshold | pKd [25, 29]: below the threshold | pKd [26, 29]: 3.87 | pKd [27, 29]: below the threshold

ADENEQVSAV [RAPGEF6, Q8TEU7]
pKd [1, 30]: below the threshold | pKd [2, 30]: 4 | pKd [3, 30]: 3.6 | pKd [4, 30]: 4.85 | pKd [5, 30]: below the threshold | pKd [6, 30]: below the threshold | pKd [7, 30]: below the threshold | pKd [8, 30]: below the threshold | pKd [9, 30]: below the threshold | pKd [10, 30]: below the threshold | pKd [11, 30]: below the threshold | pKd [12, 30]: below the threshold | pKd [13, 30]: below the threshold | pKd [14, 30]: 3.83 | pKd [15, 30]: below the threshold | pKd [16, 30]: 4.19 | pKd [17, 30]: 3.61 | pKd [18, 30]: 4.05 | pKd [19, 30]: below the threshold | pKd [20, 30]: below the threshold | pKd [21, 30]: below the threshold | pKd [22, 30]: below the threshold | pKd [23, 30]: below the threshold | pKd [24, 30]: below the threshold | pKd [25, 30]: below the threshold | pKd [26, 30]: below the threshold | pKd [27, 30]: below the threshold

SAPATLSSRA [PDLIM2, Q96JY6]
pKd [1, 30]: below the threshold | pKd [2, 30]: below the threshold | pKd [3, 30]: below the threshold | pKd [4, 30]: below the threshold | pKd [5, 30]: below the threshold | pKd [6, 30]: below the threshold | pKd [7, 30]: below the threshold | pKd [8, 30]: below the threshold | pKd [9, 30]: below the threshold | pKd [10, 30]: below the threshold | pKd [11, 30]: below the threshold | pKd [12, 30]: below the threshold | pKd [13, 30]: below the threshold | pKd [14, 30]: below the threshold | pKd [15, 30]: below the threshold | pKd [16, 30]: below the threshold | pKd [17, 30]: below the threshold | pKd [18, 30]: below the threshold | pKd [19, 30]: 4 | pKd [20, 30]: below the threshold | pKd [21, 30]: below the threshold | pKd [22, 30]: below the threshold | pKd [23, 30]: below the threshold | pKd [24, 30]: below the threshold | pKd [25, 30]: below the threshold | pKd [26, 30]: below the threshold | pKd [27, 30]: below the threshold
